According to publication PMC7618180 (2025):

B1: ^NRT peptide (ITC) (peptide)
chain: RTGG
B2: AtUBR4 ZZ domain (domain or fragment)
chain: SSVQYCCDGCSTVPILRRRWHCTVCPDFDLCEACYEVLDADRLPPPHTRDHPMTAIPI
B3: isolated ZZ-DZB domain of KCMF1 (domain or fragment)
chain: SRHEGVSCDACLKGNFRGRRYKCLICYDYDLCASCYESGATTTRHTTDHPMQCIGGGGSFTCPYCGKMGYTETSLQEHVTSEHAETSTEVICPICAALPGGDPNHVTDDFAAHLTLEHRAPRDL

Legend:
Assay in all cases: ITC
[1] = biological target: B3
^NRA peptide = biological target: ^NRA peptide
^NRR peptide = biological target: ^NRR peptide
^NLT peptide = biological target: ^NLT peptide
Sequence of ^NLT peptide (Q9P0J7 other isoform, or with tags, fused parts or gaps): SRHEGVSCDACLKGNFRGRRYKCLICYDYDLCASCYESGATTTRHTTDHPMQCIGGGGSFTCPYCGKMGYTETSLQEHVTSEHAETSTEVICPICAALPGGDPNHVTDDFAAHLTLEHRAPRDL

How did the Kd [1] turn out when B1 was run?
The Kd was 7 µM.

For B2, which Kd (^NRA peptide) is on record?
Its Kd is 10 µM.

And the Kd (^NRR peptide)?
The Kd was 19 µM.

How did the Kd (^NLT peptide) turn out when B3 was run?
Its Kd is 16 µM.
